The target in the test is T1, CAPS1 (calcium-dependent activator protein for secretion, CADPS) (rat (endogenous in rat brain), UniProt Q62717 1-1289).
T1 construct: CAPS1 (CADPS), endogenous protein of rat brain; Precipitated with a rabbit polyclonal CAPS peptide antibody and eluted with the 21-mer peptide immunogen; source: endogenous, rat brain crude synaptosomal membrane fraction, solubilized in 1% Triton X-100
The experiment in a line: affinity purification with mass spectrometry; CAPS1 immunoprecipitate of detergent extract resolved by SDS-PAGE; Coomassie-stained bands seen in the CAPS1 but not the control immunoprecipitate excised, in-gel digests, LC-MS/MS. The following applies: partners not purified.

T1 sequence (Q62717 whole entry): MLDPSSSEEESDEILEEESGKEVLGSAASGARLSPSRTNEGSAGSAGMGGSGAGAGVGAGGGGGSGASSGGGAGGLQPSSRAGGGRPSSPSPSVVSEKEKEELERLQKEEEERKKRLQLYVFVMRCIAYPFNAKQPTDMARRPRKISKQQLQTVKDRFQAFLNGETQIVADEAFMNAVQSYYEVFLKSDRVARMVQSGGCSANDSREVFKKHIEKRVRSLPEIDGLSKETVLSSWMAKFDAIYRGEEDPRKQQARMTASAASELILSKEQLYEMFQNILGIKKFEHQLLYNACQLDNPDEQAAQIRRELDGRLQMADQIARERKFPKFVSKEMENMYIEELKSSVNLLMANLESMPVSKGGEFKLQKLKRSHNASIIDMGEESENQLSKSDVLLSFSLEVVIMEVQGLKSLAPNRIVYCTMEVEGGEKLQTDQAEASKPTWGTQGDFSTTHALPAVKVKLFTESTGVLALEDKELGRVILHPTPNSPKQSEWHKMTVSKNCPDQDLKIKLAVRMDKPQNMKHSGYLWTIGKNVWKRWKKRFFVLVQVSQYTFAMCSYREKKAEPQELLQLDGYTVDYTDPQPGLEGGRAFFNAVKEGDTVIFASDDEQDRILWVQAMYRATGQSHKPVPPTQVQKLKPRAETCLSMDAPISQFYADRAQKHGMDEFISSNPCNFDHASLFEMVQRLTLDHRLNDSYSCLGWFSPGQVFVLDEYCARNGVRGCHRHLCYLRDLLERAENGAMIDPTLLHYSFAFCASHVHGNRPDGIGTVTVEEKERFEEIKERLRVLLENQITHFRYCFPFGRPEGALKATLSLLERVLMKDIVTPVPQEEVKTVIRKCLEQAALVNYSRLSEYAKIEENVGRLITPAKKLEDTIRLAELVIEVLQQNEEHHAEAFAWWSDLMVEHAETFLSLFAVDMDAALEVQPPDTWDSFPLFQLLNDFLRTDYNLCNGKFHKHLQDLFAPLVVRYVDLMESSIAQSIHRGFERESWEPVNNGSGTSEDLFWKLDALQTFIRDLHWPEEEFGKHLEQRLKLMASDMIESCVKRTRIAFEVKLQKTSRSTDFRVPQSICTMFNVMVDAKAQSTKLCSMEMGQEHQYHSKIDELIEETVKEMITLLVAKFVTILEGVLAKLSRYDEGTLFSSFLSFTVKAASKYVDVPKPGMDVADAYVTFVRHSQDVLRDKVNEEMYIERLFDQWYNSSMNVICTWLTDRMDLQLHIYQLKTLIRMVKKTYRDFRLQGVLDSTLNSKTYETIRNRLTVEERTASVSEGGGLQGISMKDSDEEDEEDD

B1: Rabconnectin3β (Rbcn3β) / WD repeat domain 7 (WDR7) (natural protein, rat (endogenous in rat brain), UniProt Q9ERH3 1-1488, looked up)
chain: MAGNSLVLPIVLWGRKAPTHCISSILLTDDGGTIVTGCHDGQICLWDLSEELEVNPRALLFGHTAAITCLSKACASGDKQYTVSASANGEMCLWDVNDGRCIEFTKLACTHTGIQFYQFSVGNQREGRLLCHGHYPEILVVDATSLEVLYSLVSKISPDWISSMSIIRSHRTQEDTVVALSVTGILKVWIVTSEISGLQDTEPIFEEESKPIYCQNCQSLSFCAFTQRSLLVVCSKYWRVFDAGDYSLLCSGPSEDGQTWTGGDFVSADKVIIWTENGQSYIYKLPASCLPASDSFRSDVGKAVENLIPPVQHSLLDQKDRELVICPPVTRFFYGCKEYLHKLLIQGDSSGRLSIWNIADIADKQEANEGLKTTTCISLQDAFDKLKPCPAGIIDQLSVIPNSNEPLKVTASVYIPAHGRLVCGREDGSIIIVPATQTAIVQLLQGEHMLRRGWPPHRTLRGHRNKVTCLLYPHQVSARYDQRYLISGGVDFSVIIWDIFSGEMKHIFCVHGGEITQLLVPPENCSARVQHCVCSVASDHSVGLLSLREKKCIMLASRHLFPIQVIKWRPSDDYLVVGCTDGSVCVWQMDTGALDRCAMGITAVEILNACDEAVPAAVDSLSHPAVNLKQAMTRRSLAALKNMAHHKLQTLATNLLASEASDKGNLPKYSHNSLMVQAIKTNLTDPDIHVLFFDVEALIIQLLTEEASRPNTALISPENLQKASGSSDKGGSFLTGKRAAVLFQQVKETIKENIKEHLLDEEEDEEEVMRQRREESDPEYRASKSKPLTLLEYNLTMDTAKLFMSCLHAWGLNEVLDEVCLDRLGMLKPHCTVSFGLLSRGGHMSLMLPGYNQAAGKLLQAKAEAGRKGPATESVGKGTYTVSRAVTTQHLLSIISLANTLMSMTNATFIGDHMKKGPTRPPRPGTPDLSKARDSPPASSNIVQGQIKQAAAPVSARSAADHSGSASASPALRTCFLVNEGWSQLAAMHCVMLPDLLGLGKFRPPLLEMLARRWQDRCLEVREAAQALLLAELRRIEQAGRKETIDTWAPYLPQYMDHVISPGVTAEAMQTMAAAPDASGPEAKVQEEEHDLVDDDITTGCLSSVPQMKKMSTSYEERRKQATAIVLLGVIGAEFGAEIEPPKLLTRPRSSSQIPEGFGLTSGGSNYSLARHTCKALTFLLLQPPSPKLPPHSTIRRTAIDLIGRGFTVWEPYMDVSAVLMGLLELCADAEKQLANITMGLPLSPAADSARSARHALSLIATARPPAFITTIAKEVHRHTALAANTQSQQSIHTTTLARAKGEILRVIEILIEKMPTDVVDLLVEVMDIIMYCLEGSLVKKKGLQECFPAICRFYMVSYYERSHRIAVGARHGSVALYDIRTGKCQTIHGHKGPITAVSFAPDGRYLATYSNTDSHISFWQMNTSLLGSIGMLNSAPQLRCIKTYQVPPVQPASPGSHNALRLARLIWTSNRNVILMAHDGKEHRFMV
notes: Rabconnectin3β / WDR7, endogenous protein of rat brain; also called Rabcn3β; Rbcn3β/WDR7; source: endogenous, rat brain crude synaptosomal membrane fraction, solubilized in 1% Triton X-100
For the molecule B1, the “stoichiometry relative to CAPS1 (bands of the immunoprecipitate)” value was 0.167 Rbcn3 subunit : CAPS1.

(Values after PMC6579465, “The priming factor CAPS1 regulates dense-core vesicle acidification by interacting with rabconnectin3β/WDR7 in neuroendocrine cells” (The Journal of Biological Chemistry, 2019).)
